Reference: US20260092110A1 (Kyowa Kirin, published 2026)

T1: human MOG (hMOG) expressed on HEK293, Expi293F or L929 cells (human, UniProt Q16653 30-247)
T1 construct: also called hMOG/HEK293; hMOG/HEK293F
T1 chain: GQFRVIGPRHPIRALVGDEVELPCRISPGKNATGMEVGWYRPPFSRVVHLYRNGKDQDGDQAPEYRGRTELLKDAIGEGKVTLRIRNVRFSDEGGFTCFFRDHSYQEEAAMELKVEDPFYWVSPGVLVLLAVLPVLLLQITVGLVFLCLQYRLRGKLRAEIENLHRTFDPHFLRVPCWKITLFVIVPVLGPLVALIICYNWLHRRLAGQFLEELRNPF

T2: rat MOG (rMOG) expressed on HEK293F cells (rat, UniProt Q63345 28-245)
T2 construct: also called rMOG/HEK293F
T2 sequence: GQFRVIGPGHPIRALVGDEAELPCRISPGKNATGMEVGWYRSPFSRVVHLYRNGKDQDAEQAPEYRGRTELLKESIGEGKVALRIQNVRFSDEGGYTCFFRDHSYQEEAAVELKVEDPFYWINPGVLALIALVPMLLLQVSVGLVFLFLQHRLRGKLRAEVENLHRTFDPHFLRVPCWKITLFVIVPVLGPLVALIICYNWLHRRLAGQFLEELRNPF

T3: cynomolgus monkey MOG (cMOG) expressed on HEK293 cells (cynomolgus monkey, UniProt Q9BGS7 30-247)
T3 construct: also called cMOG/HEK293
T3 sequence: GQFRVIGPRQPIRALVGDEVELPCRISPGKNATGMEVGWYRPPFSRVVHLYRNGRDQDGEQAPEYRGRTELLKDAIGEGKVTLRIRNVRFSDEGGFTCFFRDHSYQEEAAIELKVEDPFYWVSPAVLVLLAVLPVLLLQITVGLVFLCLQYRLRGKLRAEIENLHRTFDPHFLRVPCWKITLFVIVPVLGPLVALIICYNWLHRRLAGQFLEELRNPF


Key:
[1] = biological target: T1, human MOG (hMOG) expressed on HEK293, …; test: flow cytometry on L929 cells expressing human MOG (hMOG/L929); antibody titrated, RPE-labelled goat anti-human antibody
Text: (§1) pEF6_hMOG obtained in Example 5 was introduced to mouse connective tissue-derived fibroblast L929 cells [American Type Culture Collection (ATCC) No.: CCL-1] using HilyMax (manufactured by Dojindo Laboratories). The gene-transfected cells were selected using an antibiotic substance, Blasticidin (manufactured by Invitrogen) and then cloned by the limiting dilution method. Using the L929 cells expressing hMOG on the cell surface (abbreviated as hMOG/L929 below), the reactivities of the bispecific antibodies were analyzed by the method described below.
(§2) The hMOG/L929 cells were suspended in a Staining Buffer (SB) of PBS containing 0.1% NaN₃ and 1% FBS and dispensed to a round-bottom 96-well plate (manufactured by Becton Dickinson). […] After suspending the pellets, the plate was left to stand at ice temperature for 30 minutes. The supernatants were removed after further centrifugation (2000 rpm, 4° C., two minutes), and the pellets were washed with SB. Then, 1 μg/mL RPE fluorescently labeled goat anti-human antibody (manufactured by Southern Biotech) was added, and the plate was incubated at ice temperature for 30 minutes. After washing with SB, the cells were suspended in SB, and the fluorescence intensities of the cells were measured with a flow cytometer FACS CANTO II (manufactured by Becton Dickinson). The results are shown in FIGS. 12A to 12C and FIGS. 13A and 13B.

[2] = biological target: T4, extracellular domain protein of rat MOG to which GST is added at the C-terminus (rMOG-GST) (rat); test: SPR as in Example 8 (antibody captured, rMOG-GST analyte)
T4 construct: whole construct entry
Method: (§3) The antibodies were immobilized on CM5 sensor chips using a Human antibody Capture kit, and the binding abilities were evaluated using rMOG-GST produced in Example 4 as an analyte. The obtained sensorgrams were analyzed with BIA evaluation software, and the dissociation constants (KD values) were thus calculated.
Binding of the bispecific antibodies obtained in Example 6 and Example 16 to MOG was evaluated by the same method as that of Example 8.
Target sequence in this assay (chain, as listed by the source limits assumed): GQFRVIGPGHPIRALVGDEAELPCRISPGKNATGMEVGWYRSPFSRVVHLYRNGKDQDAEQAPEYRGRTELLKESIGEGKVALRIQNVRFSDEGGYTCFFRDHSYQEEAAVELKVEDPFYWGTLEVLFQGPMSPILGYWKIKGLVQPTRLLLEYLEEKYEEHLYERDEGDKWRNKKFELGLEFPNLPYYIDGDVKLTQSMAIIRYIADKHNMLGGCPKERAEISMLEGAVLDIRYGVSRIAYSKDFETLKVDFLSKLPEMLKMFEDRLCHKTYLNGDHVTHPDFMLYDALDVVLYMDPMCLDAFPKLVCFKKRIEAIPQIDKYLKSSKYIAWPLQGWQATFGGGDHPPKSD

[3] = biological target: T1, human MOG (hMOG) expressed on HEK293, …; test: flow cytometry, hMOG/L929 cells
Text: as §1, §2

[4] = biological target: T2, rat MOG (rMOG) expressed on HEK293F …; test: flow cytometry on HEK293 cells transiently expressing rat MOG; antibody at 10 µg/mL, RPE-labelled goat anti-human antibody; negative control anti-AVM antibody
Method: (§4) rMOG/HEK293F, mMOG/IEK293F, cMOG/HEK293 and hMOG/HEK293 cells were suspended in a Staining Buffer (SB) of PBS containing 0.1% NaN₃ and 1% FBS each at a concentration of 5×10⁵ cells/mL and dispensed to a round-bottom 96-well plate (manufactured by Becton Dickinson).
(§5) After centrifugation (2000 rpm, 4° C., two minutes), the supernatants were removed, and the antibodies obtained in Example 6 at 10 μg/mL were added to the pellets. After suspending the pellets, the plate was left to stand at ice temperature for 30 minutes. The supernatants were removed after further centrifugation (2000 rpm, 4° C., two minutes), and the pellets were washed with SB. Then, 1 μg/mL RPE fluorescently labeled goat anti-human antibody (manufactured by […]) was added, and the plate was incubated at ice temperature for 30 minutes.
(§6) After washing with SB, the cells were suspended in SB, and the fluorescence intensities of the cells were measured using a flow cytometer FACS CANTO II (manufactured by Becton Dickinson). As the negative control, an anti-AVM antibody was used.

[5] = biological target: T4, extracellular domain protein of rat MOG …; test: SPR Biacore T-100, antibody captured, rMOG-GST analyte
Method: as §3

[6] = biological target: T3, cynomolgus monkey MOG (cMOG) expressed …; test: flow cytometry on HEK293 cells transiently expressing cynomolgus monkey MOG; antibody at 10 µg/mL, RPE-labelled goat anti-human antibody; negative control anti-AVM antibody
Method: as §4, §5, §6

[7] = biological target: T1, human MOG (hMOG) expressed on HEK293, …; test: flow cytometry on HEK293 cells transiently expressing human MOG; antibody at 10 µg/mL, RPE-labelled goat anti-human antibody; negative control anti-AVM antibody
Method: as §4, §5, §6

| Binder | Kd [2] | koff [2] | kon [2] | binding result [3] | also measured |
| --- | --- | --- | --- | --- | --- |
| AVM IgG4PE(R409K)_MOG01sscFv antibody (bispecific antibody, copies: 1 + 1 + 2) heavy 1: EVQLVESGGGLVQPGRSLKLSCAASGFTFSNYAMAWVRRAPTKGLEWVASISNGGGNTYYRDSVKGRFTISRDDAKNTLYLQMDSLRSEDTATYYCARHGNYIYYGSFFDYWGQGVMVTVSSASTKGPSVFPLAPCSRSTSESTAALGCLVKDYFPEPVTVSWNSGALTSGVHTFPAVLQSSGLYSLSSVVTVPSSSLGTKTYTCNVDHKPSNTKVDKRVESKYGPPCPPCPAPEFEGGPSVFLFPPKPKDTLMISRTPEVTCVVVDVSQEDPEVQFNWYVDGVEVHNAKTKPREEQFNSTYRVVSVLTVLHQDWLNGKEYKCKVSNKGLPSSIEKTISKAKGQPREPQVYTLPPCQEEMTKNQVSLWCLVKGFYPSDIAVEWESNGQPENNYKTTPPVLDSDGSFFLYSKLTVDKSRWQEGNVFSCSVMHEALHNHYTQKSLSLSLGGGSGGGGSGGGGSGGGGSQVQLQQSGAGLLKPSETLSLTCAVSGGSFSGYYWTWIRQRPGKGLEWIGEINHRGSTDYNPSLKSRVTMSIDTSKSQFSLNLKSVTAADTAVYYCARAAWGSCYDGTCYPAEYFQYWGQGTLVTVSSGGGGSGGRASGGGGSQSALTQPASVSGSPGQSITISCTGTSRDVGGYNYVSWYQQHPGKAPKLMIYDVNNRPSGVSNRFSGSKSGNTASLTISGLQAEDEADYFCSSYTSSSTPVVFGGGTKLTVLDYKDDDDK heavy 2: EVQLVESGGGLVQPGRSLKLSCAASGFTFSNYAMAWVRRAPTKGLEWVASISNGGGNTYYRDSVKGRFTISRDDAKNTLYLQMDSLRSEDTATYYCARHGNYIYYGSFFDYWGQGVMVTVSSASTKGPSVFPLAPCSRSTSESTAALGCLVKDYFPEPVTVSWNSGALTSGVHTFPAVLQSSGLYSLSSVVTVPSSSLGTKTYTCNVDHKPSNTKVDKRVESKYGPPCPPCPAPEFEGGPSVFLFPPKPKDTLMISRTPEVTCVVVDVSQEDPEVQFNWYVDGVEVHNAKTKPREEQFNSTYRVVSVLTVLHQDWLNGKEYKCKVSNKGLPSSIEKTISKAKGQPREPQVCTLPPSQEEMTKNQVSLSCAVKGFYPSDIAVEWESNGQPENNYKTTPPVLDSDGSFFLVSKLTVDKSRWQEGNVFSCSVMHEALHNHYTQKSLSLSLGKHHHHHH light: QFVLSQPNSVSTNLGSTVKLSCKRSTGNIGSNYVSWYQQHEGRSPTTMIYRDDKRPDGVPDRFSGSIDRSSDSALLTINNVQTEDEADYFCQSYSSGINIFGGGTKLTVLGQPKAAPSVTLFPPSSEELQANKATLVCLISDFYPGAVTVAWKADSSPVKAGVETTTPSKQSNNKYAASSYLSLTPEQWKSHRSYSCQVTHEGSTVEKTVAPTECS | 200 nM | 0.01 s⁻¹ | 51000 M⁻¹ s⁻¹ |  | binding result [1]: binds |
| AVM IgG4PE(R409K)_MOG01 Fab antibody (bispecific antibody) heavy 1: not shown heavy 2: QVQLQQSGAGLLKPSETLSLTCAVSGGSFSGYYWTWIRQRPGKGLEWIGEINHRGSTDYNPSLKSRVTMSIDTSKSQFSLNLKSVTAADTAVYYCARAAWGSCYDGTCYPAEYFQYWGQGTLVTVSSASTKGPSVFPLAPCSRSTSESTAALGCLVKDYFPEPVTVSWNSGALTSGVHTFPAVLQSSGLYSLSSVVTVPSSSLGTKTYTCNVDHKPSNTKVDKRV light: QFVLSQPNSVSTNLGSTVKLSCKRSTGNIGSNYVSWYQQHEGRSPTTMIYRDDKRPDGVPDRFSGSIDRSSDSALLTINNVQTEDEADYFCQSYSSGINIFGGGTKLTVLGQPKAAPSVTLFPPSSEELQANKATLVCLISDFYPGAVTVAWKADSSPVKAGVETTTPSKQSNNKYAASSYLSLTPEQWKSHRSYSCQVTHEGSTVEKTVAPTECS | 34 nM | 0.0035 s⁻¹ | 100000 M⁻¹ s⁻¹ |  | binding result [1]: binds |
| AVM IgG4PE(R409K)_MOG01dscFv5 antibody (bispecific antibody, also called pCI-AVM-hLG4PE(R409K)_MOG01scFv5) heavy: not shown light: QFVLSQPNSVSTNLGSTVKLSCKRSTGNIGSNYVSWYQQHEGRSPTTMIYRDDKRPDGVPDRFSGSIDRSSDSALLTINNVQTEDEADYFCQSYSSGINIFGGGTKLTVLGQPKAAPSVTLFPPSSEELQANKATLVCLISDFYPGAVTVAWKADSSPVKAGVETTTPSKQSNNKYAASSYLSLTPEQWKSHRSYSCQVTHEGSTVEKTVAPTECS | 24 nM | 0.0048 s⁻¹ | 200000 M⁻¹ s⁻¹ | binds |  |
| AVM IgG4PE(R409K)_MOG01dscFv7 antibody (bispecific antibody, also called pCI-AVM-hLG4PE(R409K)_MOG01scFv7) heavy: not shown light: QFVLSQPNSVSTNLGSTVKLSCKRSTGNIGSNYVSWYQQHEGRSPTTMIYRDDKRPDGVPDRFSGSIDRSSDSALLTINNVQTEDEADYFCQSYSSGINIFGGGTKLTVLGQPKAAPSVTLFPPSSEELQANKATLVCLISDFYPGAVTVAWKADSSPVKAGVETTTPSKQSNNKYAASSYLSLTPEQWKSHRSYSCQVTHEGSTVEKTVAPTECS |  |  |  | binds |  |
| AVM IgG4PE(R409K)_MOG01dscFv6 antibody (bispecific antibody, also called pCI-AVM-hLG4PE(R409K)_MOG01scFv6) heavy: not shown light: QFVLSQPNSVSTNLGSTVKLSCKRSTGNIGSNYVSWYQQHEGRSPTTMIYRDDKRPDGVPDRFSGSIDRSSDSALLTINNVQTEDEADYFCQSYSSGINIFGGGTKLTVLGQPKAAPSVTLFPPSSEELQANKATLVCLISDFYPGAVTVAWKADSSPVKAGVETTTPSKQSNNKYAASSYLSLTPEQWKSHRSYSCQVTHEGSTVEKTVAPTECS |  |  |  | binds |  |
| AVM IgG4PE(R409K)_MOG01dscFv3 antibody (bispecific antibody, also called pCI-AVM-hLG4PE(R409K)_MOG01scFv3) heavy: not shown light: QFVLSQPNSVSTNLGSTVKLSCKRSTGNIGSNYVSWYQQHEGRSPTTMIYRDDKRPDGVPDRFSGSIDRSSDSALLTINNVQTEDEADYFCQSYSSGINIFGGGTKLTVLGQPKAAPSVTLFPPSSEELQANKATLVCLISDFYPGAVTVAWKADSSPVKAGVETTTPSKQSNNKYAASSYLSLTPEQWKSHRSYSCQVTHEGSTVEKTVAPTECS | 13 nM | 0.0022 s⁻¹ | 170000 M⁻¹ s⁻¹ | binds |  |
| MOG01 antibody (anti-MOG human IgG antibody expressed from N5LG4PE_MOG01) (antibody, V domains shown, also called anti-MOG01 human IgG antibody; MOG01 IgG4PE) VH: QVQLQQSGAGLLKPSETLSLTCAVSGGSFSGYYWTWIRQRPGKGLEWIGEINHRGSTDYNPSLKSRVTMSIDTSKSQFSLNLKSVTAADTAVYYCARAAWGSCYDGTCYPAEYFQYWGQGTLVTVSS VL: QSALTQPASVSGSPGQSITISCTGTSRDVGGYNYVSWYQQHPGKAPKLMIYDVNNRPSGVSNRFSGSKSGNTASLTISGLQAEDEADYFCSSYTSSSTPVVFGGGTKLTVL |  |  |  |  | binding result [4]: binds; Kd [5]: 6.6 nM; koff [5]: 0.00095 s⁻¹; kon [5]: 140000 M⁻¹ s⁻¹; binding result [6]: binds; binding result [7]: binds |
